In the DeepSol protein solubility set:

Experiment: soluble on expression in E. coli; label from the status in PepcDB or PDB records

Soluble on expression in E. coli, soluble:
MSLEALLSEDVKIIASALKAAIDKDRKSTSKREAETGIRYYNHENDIMNNRIFYVDDEGVLREDKYASNVRIPHGFFPEIVDQKTQYLLSNPVEYETENEELKEYLAEYYNSEFQVVLQELVEGSSQKGFEYVYARTNAEDRLCFQVADSLNVFGVYNEYNELQRICRHYITEIEKDGETVDIHHAEVWTDQNVYFFVAEDNKDYELDEAEPINPRPHVLAVDSDNESLLQRSYGQIPFYRLSNNKQETTDLKSIKALIDDYDLMNCFLSNNLQDFAEAIYVVSGFQGDDLSKLRQNVKSKKVVGTGSDGGLDVKTVTIPTEGRKTKMEIDKENIYKFGMAFDSTQVGDGNITNIVIKARYTLLNMKANKTEARLRALLEWMNKLVIDDINRRYTKAFDPTEVSFTFTREVMVNETDIVNNEKTEAETRKIILESILQVAPRLDDDNVLRLICEQFDLDWEDVKEALEEAEYTQGLTDNTDEEETAEGHHHHHH
MSLEDCRISRVELYALADENAPPIPWADNQEPLLYTNNIVRLFTEDGTEGLGATMSYTENFFDRCIIESLRTIVPGLIGKNPLMTQELNNWLGARCTWGGLPAKSPIDIAAWDIKGKKAGMPLYMLLGGARTKIKSYASTPMFDTVEEYFPYIDDCIEHGFTAIKLHCYCVYDKDVALVEAVEAKYGTSGIRFMLDTAGFYTPEQAMKMAKWMERHNWEWLEAPVSDYDFKTYQRLVANTDLEISSHGNCLLTLQEVTHALSTGMWSDVRQDATVCGGITQLNKCFAIAAGHSKNLEIQSMGYTLTQAANLHVALAHDNCNFFEQFYPYEAFELASKTQIRTDKEGYVHAPAGNGLGVEMDWDAVKEASFASYVFEEGHHHHHH
MSLEDSKASLETRNFYMNRDFRDGPGQSKREEWAQGFILNLQSGYTQGTVGFGLDAMGMLGVKLDSGRGRSGTGLLPKDSDGRAPDTYSKLGLTAKVKVSQSELKVGTLIPKLPSVQPNNGRIFPQIFEGALLTSKEIKDLGFTAGRLEKTKIRDSSDSEDLALNDKNGRFAGVSADHFDLGGLDYKLTDQLTASYHYSNLQDVYRQHFVGLLHSWPIGPGELTSDLRFARSTDSGSAKAGGIDNKSLNGMFTYSLGNHAFGAAWQRMNGDDAFPYLEGSNPYLVNFVQVNDFAGPKERSWQLRYDYDFVGLGIPGLTFMTRYVKGDNVELAGQSGEGREWERNTELQYVFQSGALKNLGIRWRNATFRSNFTRDIDENRLIVSYTLPIWEGHHHHHH
MSLEFLRDFGKTALIHQGNEISYAELLENIASFANLMDITPNERVGIVMENRPEWVYAFYGTWKKGGIVVPIDFMSTPQEIRYILEDAEPSIIFCSDETYPRVREASEDLKVEIVNVDNLVLPTPWEGIVRRDEDDVAVLPYTSGTTGNPKGVMLTFKNLMSNIRGVSEVGIAGKEDKTLAILPFHHMYPLMTTMLLPLYLGATVVFLDKLTPEDIIEKLQKYQITVLIGVPRLYQLFHRRIMEEINKNVLAKNLFKLMKKVKNQKIRKTVFKKVHDAFGGRIKYMVSGGAKLPLDIAQDLTTLGFTVIEGYGLTETSPIVSFNPPNRIKLGSVGVPIKGVEVMTTSEGEIIVRGDNVMKGYWKKPEETQKVIINGWFYTGDLGEIDEEGYIYITGRKKEIIVLGSGKNVFPEEIESKILAKAPYIKEVGVFEKDGKLLALIYPDFEKVKELGITNLEETIKWEVIDKVNRELPEWKRVVGFKIVKTELPKTRLGKLRRFLLPQIYEKAEEIKEEKTEDYSVFETEEGRIIKEFLEKISQKEVKPGDHLEIDLGLDSLAKVELLGFIETNFGVSLSEEELSKNLVVKDLIELVRSKKKSVDTKEVSWKDILTKAKPYELYHYPLIFELGRKLLKLYFKLYHRIDVRGLENLPKPPFIIAPNHQSYLDAFAIAAVLPKEIAHETYFLGDETYFRNPITSTFGKLAHVITVNVNKGLKESLQKTAYALMSGKVVVIFPEGARTRTEELMEFKKGVAILARELGVPIVPVAIEGAYEAWSVYDKFPKPKKIKIMFGKPVDPDEKSYEEITKELYEWIKSMLEFLKKESEGHHHHHH
MSLEKPKYKRIVLKLSGEALAGEQGNGINPTVIQSIAKQVKEIAELEVEVAVVVGGGNLWRGKTGSDLGMDRATADYMGMLATVMNSLALQDSLETLGIQSRVQTSIEMRQVAEPYIRRKAIRHLEKKRVVIFAAGTGNPYFSTDTTAALRAAEIEADVILMAKNNVDGVYNADPRKDESAVKYESLSYLDVLKDGLEVMDSTASSLCMDNDIPLIVFSIMEEGNIKRAVIGESIGTIVRGKEGHHHHHH
